Measured values: the DeepSol protein solubility set

Experiment: soluble on expression in E. coli; label from the status in PepcDB or PDB records

Soluble on expression in E. coli, soluble:
GHQLPIWKQDEKSLTENDYYSFYKNTFKAYDDPLAYVHFNVEGQISFNSILYIPGSLPWELSKNMFDEESRGIRLYVKRVFINDKFSESIPRWLTFLRGIVDSENLPLNVGREILQKSKMLSIINKRIVLKSISMMKGLKETGGDKWTKFLNTFGKYLKIGVVEDKENQEEIASLVEFYSINSGDKKTDLDSYIENMKEDQKCIYYISGENKKTAQNSPSLEKLKALNYDVLFSLEPIDEFCLSSLTVNKYKGYEVLDVNKAD
SMQPPIAKPGETWILQAKRSDEFNVKDATKWNFQTENYGVWSWKNENATVSKGKLKLTTKRESHQRTFWDGCNQQQVANYPLYYTSGVAKSRATGNYGYYEARIKGASTFPGVSPAFWMYSTIDRSLTKEGDVQYSEIDVVELTQKSAVRESDHDLHNIVVKNGKPTWMRPGSFPQTNHNGYHLPFDPRNDFHTYGVNVTKDKITWYVDGEIVGEKDNLYWHRQMNLTLSQGLRAPHTQWKCNQFYPSANKSAEGFPTSMEVDYVRTWVKV
MAAKIPGVIALFDVDGTLTAPRKEATPELLDFIRELRKVVTIGVVGGSDLSKISEQLGKTVTNDYDYCFSENGLVAHKDGKSIGIQSLKLHLGDDKLKELINFTLHYIADLDIPIKRGTFIEFRNGMLNVSPIGRNCSQEERDEFERYDKVQNIRPKMVAELRERFAHLNLTFSIGGQISFDVFPKGWDKTYCLQYLEDFSEIHFFGDKTYEGGNDYEIYESPKTIGHSVTSPDDTVAKCKALFMS
SSASDGFKANLVFKEIEKKLEEEGEQFVKKIGGIFAFKVKDGPGGKEATWVVDVKNGKGSVLPNSDKKADCTITMADSDFLALMTGKMNPQSAFFQGKLKITGNMGLAMKLQNLQLQPGNAKL
MFDPKKFIDEAVEEIKQQISDRKAIIALSGGVDSSVAAVLTHKAIGDKLTAVFVDTGLMRKGEREEVEKTFRDKLGLNLIVVDAKDRFLNALKGVTDPEEKRKIIGKLFIDVFEEIAEDIKAEVLVQGTIAPDWIETQGKIKSHHNVALPHGMVLEVVEPLRELYKDEVRLLAKELGLPDSIVYRQPFPGPGLAVRVLGEVTEEKLNICREANAIVEEEVKKANLDKDLWQYFAVVLDCKATGVKGDEREYNWIVALRMVKSLDAMTAHVPEIPFDLLKRISKRITSEIPNVARVVFDITDKPPATIEFE
SPLHVSLANGNRDLDYDSVQPYFMCDDEEEDVHHQQPPQPPAPSEDIWKKFELLPTPRPSPGHAGLYSPPCEAVAVSFAPRDHDGDSFSIADLPELPGGDAVKQSFVCDPDDETFVKNIILQDCMWNGFSASAKLVSKLDPYQAVRKEGTGVSLAADVEPATPPDCTCNT
MHHHHHHSSGRENLYFQGVWKSYLYQLQQEAPHPRRITCTCEVENRPKYYGREFHGMISREAADQLLIVAEGSYLIRESQRQPGTYTLALRFGSQTRNFRLYYDGKHFVGEKRFESIHDLVTDGLITLYIETKAAEYIAKMTINPIYEHVGYTTLNREPAYKKHMPVLKETHDERDSTGQDGVSEKRLTSLVRRATLKENEQIPKYEKIHNFKVHTFRGPHWCEYCANFMWGLIAQGVKCADCGLNVHKQCSKMVPNDCKPDLKHVKKVYSCDLTTLVKAHTTKRPMVVDMCIREIESRGLNSEGLYRVSGFSDLIEDVKMAFDRDGEKADISVNMYEDINIITGALKLYFRDLPIPLITYDAYPKFIESAKIMDPDEQLETLHEALKLLPPAHCETLRYLMAHLKRVTLHEKENLMNAENLGIVFGPTLMRSPELDAMAALNDIRYQRLVVELLIKNEDILF
MEKSWYVVHTYSGYENKVKANLEKRVESMGMQDKIFRVVVPEEVEVEMKNGKEKLMKRKVFPGYVLVELIMTDDSWYVVRNTPGVTGFVGSSGSGSKPSPLLEEEVVTIMKHMGMDNEVVDFDFELHETVRVNEGPFADYTGAIEEIDVEKKKVSVLVDMFGRETPVELDFHQIEKL
MKWRYGAAAGVESRGPHIRVQTVASQVPRGVCWMARVAVVVKVYPDDVSIDPKTLAERIKSKLPSGYEVLAEGEEPIAFGLKALKLVIAMNEDTEGGTEEVEQLLKNIEGVQEVEVENVSRMQ

Soluble on expression in E. coli, not soluble:
MPAYKYNRVFLIVMDSVGIGEAPDAADFNDEGAHTLGHIAEHMNGLHMPNMAKLGLGLIEDIKGVEKTEHPLAYYGKLQEASNGKDTMTGHWEIMGLYIDKPFKVFPEGFPDELLQELEKRSGRKIIGNKPASGTAILDELGQEHMETGALIVYTSADSVLQIAAHEEVVPLEELYRICETARELTLDPKYMVGRIIARPFVGEPGQFKRTPNRHDYALKPFDRTVMNELKDCGLDVISIGKISDIYDGEGITSSRRTVSNMDGMDKVIDTLGEDFTGLSFANLVDFDALFGHRRDPEGYGRALEEFDARLPEVFGKMREDDLLIITADHGNDPIHHGTDHTREYVPILAYSKKHKKAQMLPLADTFADIGATIADNFQTNKPKYGKSFLSLLQ
MRHALITAGTKGLGKQVTEKLLAKGYSVTVTYHSDITAMKKMKETYKNMEERLQFVQADVTKKEDLHKIVEEAISRFGKIDFLINNAGPYVFERKKLVDYEEDEWNEMIQGNLTAVFHLLKLVVPIMRKQNFGRIINYGFQGADSAPGWIYRSAFAAAKVGLVSLTKTVAYEEAEYGITANMVCPGDIIGEMKEATIQEARQLKERNTPIGRSGTGEDIARTISFLCEEDSDMITGTIIEVTGAVDVIHRHR
AHHHHHHGSKIAIPTNGGGREDTVAPLFARAPAFYIAEVDEKGNIISEKVIQNPAATAGRGAGPIAVQMLINEGVDTIVAPQVVPNALGAIQAAGIRVYYVTPGTPVEEAIKVATTGQGGQLPSLPQIPTPVTPAPAMYGPVYPPFGWGRGWGKGRGWGRGWGSILGYCPWTGMPSRRALRWYYGWW
MFFESCKSILYSDTLVPDIFITEYMPLLSSDSVKVYLYSLFLSKHNKKASTEEFAKSMGLEISTVKECLAQLESMGVLTWKEDGLVLHDLKEKEINKMYRLKTTSTPEEVASNCEKNKKRNEIIYTINNTFFQGVMSPSWYTDIDAWFDRYKFDEDVMLALFQYCFDHKGLIKPYIEKVAESWKNRNIRNAFDLDNYSIQYKKFKDVRSAIVKKLKLGRNLTEYEEAYVEKWVMDYNYDFDIIELALKKTTSKTNPNFDYLDSIITDWHNNNFKTKEEIMSYEAARKKKNSRTSSVSASVIVPQKGNFEQRKYEDEYLNSLYENA
NISYFSIGSGTPIIFLHGLSLDKQSTCLFFEPLSNVGQYQRIYLDLPGMGNSDPISPSTSDNVLETLIEAIEEIIGARRFILYGHSYGGYLAQAIAFHLKDQTLGVFLTCPVITADHSKRLTGKHINILEEDINPVENKEYFADFLSMNVIINNQAWHDYQNLIIPGLQKEDKTFIDQLQNNYSFTFEEKLKNINYQFPFKIMVGRNDQVVGYQEQLKLINHNENGEIVLLNRTGHNLMIDQREAVGFHFDLFLDE
MITSYEATVVTTDDIVHEVNLEGKRIGYVIKTENKETPFTVVDIDGPSGNVKTLNDGVKKMCLVHIGKNLPAEKKAEFLATLIAMKLKGEI
MGSDKIHHHHHHMQPTIDQKKNPAIGNQRVTKRRKTIAQGLIQEGIELEIIQSWLFAIAQMWEVGHIPPILRGISHKSQVEALFRISQIGETIQKVHEKLAGEYYQDWVKSLNRAGLHTPSEIISAITEIQQVVKPEAIDTTKQLLNKLELEIIGMKDGDFFPTPKPLCQRLVQLADIKPNWQILEPSAGSGNIAEYITNTYPNVQLEVVEINYDLRQILELKGFNLVGKNFLEFNPSHLYNACIMNPPFCELVQHIYQAWKLLITGGVLVSVIPESVFFNRKYKTFKNWLLANNSYVEMVDKDAFLSSNNPTNVATRIIKLIKP
MACCYNSPRRLEKSFVLDGVAVSTMAQAYSIMRPKLWSAIPPYNPQLDHHSRRYFRSRVVPPILRKTDQDHGGTGRDGWIVDYFHIFGQGQRYLNRRNWAGAGHSLQQVSGHDYYNSNPKAITTGLNGRFGYRRNTPALRQHTSVFGEVTPFPISEDIASQGLTCVFKTDV
MVAEITAPKSMGKVLGYNFSKVTAGNASVILTSSMSVDANGETNFERALTDMDMRIPSGIRTKKTVFHCSLNPHPDDRLTTEQLQDIAREYMEKMGYGKQPYIVFKHNDIAREHIHIVSLRVDSYGKKLPYKFEARRSKRITDELERKYGLIPSGNRRSRHETHAENVLKTADVKQGDVRRQIAAVVRAVLKRYAFRSLGEMNLLLARYHIVAEEVRKEYKGKRYDGLVYAITDDAGEKRMIPLHAGKIGRGTGYAAVVRHFEKSKALIKEKAPMLRNAIIEVMQSSPDKERFSEEMKKRGIDVHIRQNEQGRIYGITFISDEAGIAANGSRLGKGYSAHVFNDYFLGGENPFLDYRRQEIRELPTVRSAPEMLPEAETGDDCYDEPVRTDESGIVVHGIDYKELAFQRKLRNRRHKQDITGKRRT
MGSDKIHHHHHHMLDKLWKKKNSMMVGIDIGSHSAKAVLLGQGNEGFIIEDFAIEPMPRGSVVDREIQDIEAVGAVIAKLRKKISAKATDAAAAVSGQTVITKLIYMDVALTEDELASQIEIEADSLIPFPLDEVSLDFETLDVNESDPSKVNVLLSAARTESIEARVAALDAGDFHAKVIDVESYAVGRAYDLCLTQLPDDAKDKVVAIVDIGSTVTLFSATDAGKHIYSRDQMFGGEQYTRSIVSYYNKSFEQAEEAKTSNDLPPNYTFEVLAPFHTVLMQQIRRAIQMFLTTSGQNKVDYLLISGGTAALEGIESLLTEELGIHTVIANPFNDMSCGESIEQAELANVAPQLMVATGLALRSFTPWHI
MSLTTMKEIAEQTGVSISTVSLVLNGRDEGRVNPALAKLVRNKATELGYKINPLARSLRTNKTRILGFISEEVATTPYAGGIILGAQDAASAYGYMLFTVSTDGKASEENEIATLKRYGVDGFFYSKMSNRIAHVPESLSDYPVVMVDATDYENKVPSVEPDEFMIGYDATIRLLQADCKRIAYVGCAENMIAQDGRLAGYCTALQEAGRAFNPSLVCNVMNDGPALRAVNKLFDDEHPDGFFCFNDARAWYVYECAARRGLTVGKDISVVGVDNHRVFAETLEPQLTTVELPHYEMGYWSACKLISMIEGKDVDTSEGHHHHHH
